Legend:
[1] = biological target: GPC3 expressed on hepatoma cell line HepG2 (human) (UniProt P51654); assay: flow cytometry on HepG2 cells, secondary antibody alone (background control); median fluorescence
[2] = biological target: GPC3 expressed on hepatoma cell line HepG2 (human) (UniProt P51654); assay: flow cytometry on HepG2 cells, secondary antibody alone (background control); mean fluorescence

Chain of GPC3 expressed on hepatoma cell line HepG2 (human) (P51654 25-554 limits assumed): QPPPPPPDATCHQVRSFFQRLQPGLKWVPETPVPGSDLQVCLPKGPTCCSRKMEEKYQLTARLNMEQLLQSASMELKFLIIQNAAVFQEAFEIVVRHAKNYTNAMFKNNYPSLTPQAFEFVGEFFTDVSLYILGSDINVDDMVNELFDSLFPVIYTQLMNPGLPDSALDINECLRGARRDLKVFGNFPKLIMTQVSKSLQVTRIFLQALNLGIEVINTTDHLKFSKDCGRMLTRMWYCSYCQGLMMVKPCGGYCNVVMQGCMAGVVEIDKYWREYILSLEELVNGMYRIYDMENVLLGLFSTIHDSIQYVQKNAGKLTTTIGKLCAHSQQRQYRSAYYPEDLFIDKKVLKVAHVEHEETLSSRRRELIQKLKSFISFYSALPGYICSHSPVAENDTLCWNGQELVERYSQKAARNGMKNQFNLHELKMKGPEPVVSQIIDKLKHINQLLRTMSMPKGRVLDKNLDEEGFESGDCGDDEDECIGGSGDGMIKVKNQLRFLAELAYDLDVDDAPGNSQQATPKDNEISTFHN

## PE-conjugated goat anti-mouse IgG (Biolegend Inc., cat #405307) (antibody)
[1]
  Median: 205
[2]
  Mean: 243

Source: patent US20240018262A1
